Measurements as given in PMC9641244.

Key:
[1] = target: T1, Dmc1 E157K (Saccharomyces cerevisiae, UniProt P25453 1-334, E157K); test: EMSA
T1 sequence: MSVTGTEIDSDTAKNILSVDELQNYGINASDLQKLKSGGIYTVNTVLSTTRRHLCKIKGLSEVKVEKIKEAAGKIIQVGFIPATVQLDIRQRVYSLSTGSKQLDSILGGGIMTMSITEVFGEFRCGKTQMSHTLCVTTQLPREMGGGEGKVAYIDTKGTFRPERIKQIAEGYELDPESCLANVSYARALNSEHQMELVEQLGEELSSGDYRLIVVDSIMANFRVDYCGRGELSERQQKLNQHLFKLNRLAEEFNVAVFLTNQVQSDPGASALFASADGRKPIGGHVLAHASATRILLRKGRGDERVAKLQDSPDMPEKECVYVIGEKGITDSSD

[2] = target: T2, DMC1 E162A (Homo sapiens, UniProt Q14565 1-340, E162A); test: EMSA
T2 sequence: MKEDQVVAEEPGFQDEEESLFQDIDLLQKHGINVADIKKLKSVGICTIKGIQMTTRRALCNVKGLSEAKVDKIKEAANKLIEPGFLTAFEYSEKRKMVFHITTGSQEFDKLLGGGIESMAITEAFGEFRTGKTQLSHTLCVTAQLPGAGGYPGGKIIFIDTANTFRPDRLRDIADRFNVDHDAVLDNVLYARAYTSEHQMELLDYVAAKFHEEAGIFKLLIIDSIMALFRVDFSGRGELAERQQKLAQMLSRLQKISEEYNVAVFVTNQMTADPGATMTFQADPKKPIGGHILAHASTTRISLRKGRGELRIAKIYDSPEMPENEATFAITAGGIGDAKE

[3] = target: T3, DMC1 D317K (Homo sapiens, UniProt Q14565 1-340, D317K); test: EMSA
T3 sequence: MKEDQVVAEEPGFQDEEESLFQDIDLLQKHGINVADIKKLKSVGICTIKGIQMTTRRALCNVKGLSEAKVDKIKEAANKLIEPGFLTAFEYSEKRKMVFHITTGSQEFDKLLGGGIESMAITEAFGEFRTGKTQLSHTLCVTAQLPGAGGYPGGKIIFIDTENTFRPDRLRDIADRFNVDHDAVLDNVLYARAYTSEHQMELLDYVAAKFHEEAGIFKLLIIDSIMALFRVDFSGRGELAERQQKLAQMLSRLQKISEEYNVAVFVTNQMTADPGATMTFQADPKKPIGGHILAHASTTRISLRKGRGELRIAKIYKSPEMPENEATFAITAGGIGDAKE

[4] = target: T4, DMC1 D317A (Homo sapiens, UniProt Q14565 1-340, D317A); test: EMSA
T4 sequence: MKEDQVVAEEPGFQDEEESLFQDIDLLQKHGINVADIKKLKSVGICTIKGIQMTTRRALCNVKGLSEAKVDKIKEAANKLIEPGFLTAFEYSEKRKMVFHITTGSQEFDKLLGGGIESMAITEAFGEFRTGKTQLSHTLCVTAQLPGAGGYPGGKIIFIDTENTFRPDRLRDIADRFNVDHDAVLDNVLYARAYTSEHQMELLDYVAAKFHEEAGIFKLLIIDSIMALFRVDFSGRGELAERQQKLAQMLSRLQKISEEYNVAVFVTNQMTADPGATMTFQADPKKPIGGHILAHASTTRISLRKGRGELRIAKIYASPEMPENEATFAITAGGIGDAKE

[5] = target: T5, Dmc1 D311K (Saccharomyces cerevisiae, UniProt P25453 1-334, D311K); test: EMSA
T5 sequence: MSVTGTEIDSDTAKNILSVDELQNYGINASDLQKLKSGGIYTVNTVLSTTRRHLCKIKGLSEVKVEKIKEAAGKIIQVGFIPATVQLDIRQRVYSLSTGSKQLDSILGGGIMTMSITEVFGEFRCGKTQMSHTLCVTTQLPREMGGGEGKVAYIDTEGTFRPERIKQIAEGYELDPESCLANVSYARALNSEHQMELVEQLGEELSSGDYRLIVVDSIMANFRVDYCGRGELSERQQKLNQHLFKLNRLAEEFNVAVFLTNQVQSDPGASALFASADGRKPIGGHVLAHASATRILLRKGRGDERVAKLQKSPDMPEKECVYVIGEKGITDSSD

[6] = target: T4, DMC1 D317A; test: BLI
[7] = target: T6, DMC1 E162K (Homo sapiens, UniProt Q14565 1-340, E162K); test: BLI
T6 sequence: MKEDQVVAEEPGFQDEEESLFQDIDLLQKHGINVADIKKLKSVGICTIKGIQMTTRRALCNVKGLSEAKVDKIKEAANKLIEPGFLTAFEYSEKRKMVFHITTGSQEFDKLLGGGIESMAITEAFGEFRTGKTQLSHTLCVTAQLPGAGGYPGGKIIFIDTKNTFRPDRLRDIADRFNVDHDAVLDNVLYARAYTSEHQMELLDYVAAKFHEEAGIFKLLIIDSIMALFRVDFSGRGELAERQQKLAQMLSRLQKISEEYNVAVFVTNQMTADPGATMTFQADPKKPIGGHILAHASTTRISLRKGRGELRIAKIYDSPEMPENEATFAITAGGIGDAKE

[8] = target: T3, DMC1 D317K; test: BLI
[9] = target: T7, DMC1 WT (Homo sapiens, UniProt Q14565 1-340); test: BLI
T7 sequence: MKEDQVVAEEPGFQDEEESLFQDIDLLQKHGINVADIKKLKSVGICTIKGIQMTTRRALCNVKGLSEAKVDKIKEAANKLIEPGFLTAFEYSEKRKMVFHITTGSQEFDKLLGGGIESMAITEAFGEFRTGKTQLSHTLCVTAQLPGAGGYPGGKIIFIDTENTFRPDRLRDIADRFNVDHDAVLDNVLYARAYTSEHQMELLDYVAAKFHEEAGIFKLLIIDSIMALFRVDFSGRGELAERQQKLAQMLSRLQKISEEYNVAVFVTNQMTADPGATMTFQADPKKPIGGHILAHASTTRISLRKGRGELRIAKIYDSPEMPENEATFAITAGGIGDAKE

Measured: binding result

B1: pR231 90-mer (ssDNA)
DNA: AAATCAATCTAAAGTATATATGAGTAAACTTGGTCTGACAGTTACCAATGCTTAATCAGTGAGGCACCTATCTCAGCGATCTGTCTATTT
binds: [1] | [2] | [3] | [4] | [5]

B2: pR231 90-mer biotinylated (ssDNA)
DNA: AAATCAATCTAAAGTATATATGAGTAAACTTGGTCTGACAGTTACCAATGCTTAATCAGTGAGGCACCTATCTCAGCGATCTGTCTATTT
binds: [6] | [7] | [8] | [9]
